The target of test [1] is T1, Caspase-1 (Homo sapiens, UniProt P29466).
T1 construct: purchased BioVision
T1 sequence (P29466 120-297 limits assumed): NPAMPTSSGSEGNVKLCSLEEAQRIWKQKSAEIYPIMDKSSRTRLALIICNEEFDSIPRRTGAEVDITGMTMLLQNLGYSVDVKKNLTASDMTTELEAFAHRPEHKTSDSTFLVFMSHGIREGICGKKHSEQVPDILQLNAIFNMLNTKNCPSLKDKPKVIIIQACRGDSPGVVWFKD
T1 sequence (P29466 317-404 limits assumed): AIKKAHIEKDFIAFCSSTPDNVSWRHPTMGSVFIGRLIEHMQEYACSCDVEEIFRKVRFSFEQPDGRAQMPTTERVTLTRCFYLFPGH
As to the kind of experiment: SEPARATE assay: 56-amino acid mouse peptidome library digested with Caspase-1. The note with it: selected peptides, mouse library (56-aa tiles). Type of test: biochemical. As for the experimental part: (§1) Streptavidin-coupled magnetic beads (Dynabeads M-280 Streptavidin, ThermoFisher Scientific) were washed (TBS, pH 7.4, 0.01% NP40) and resuspended in binding buffer (TBS, pH 7.4, 0.001% NP40) containing 2E9 plaque forming units per 10 μl of bead slurry. End-over-end mixing at room temperature was performed for one hour. Phage-coated beads were washed three times with wash buffer and transferred into two protein LoBind Eppendorf tubes blocked with TBS, pH 7.4 containing 1% BSA.
Digestion occurred overnight at room temperature with end-over-end rotation. […] To remove any residual biotinylated phage that may have been nonspecifically released, the 150 μl supernatant of the quenched digest reaction is then incubated with a fresh 10 μl of slurry volume M280 streptavidin beads (pre-washed three times with wash buffer) in a LoBind Eppendorf tube blocked with TBS, pH 7.4 containing 1% BSA at room temperature for one hour with end-over-end rotation.
10 μl slurry volume of protein G magnetic dynabeads were washed in buffer (TBS, pH 7.4, 0.01% NP40) and then resuspended in 50 μl TBS, pH 7.4, 0.01% NP40 containing 4 μg of M2 FLAG antibody for thirty minutes at room temperature with end-over-end rotation. The 150 μl quenched digest reaction is added to the 10 μl FLAG-coated Protein G beads and incubated for 60 minutes at room temperature with end-over-end rotation to capture phage particles released at the protease digest step. Beads are rinsed once with 100 μl wash buffer and stored at −80° C. until PCR amplification.
Library PCR preparation, high-throughput DNA sequencing, and peptide read count data generation was performed as described previously.^44 Briefly, library peptide inserts are amplified by resuspending 10 μl of FLAG-coated Protein G beads in PCR1 master mix containing the T7-Pep2_PCR1_F forward primer ([…]) (SEQ ID NO:3) and a T7-SEPARATE vector specific reverse primer ([…]) (SEQ ID NO:4), which includes an adapter sequence for sample-specific barcoding and Illumina P7 adapter incorporation during a subsequent PCR2 reaction. The PCR2 amplicons are pooled and sequenced using an Illumina NextSeq instrument in standard output mode to obtain single-end 50 nucleotide reads. Dual indexed sample demultiplexing and clonal read count determination were performed using exact sequence matching. […] To calculate the normalization factor, 100 peptides were randomly selected from the mock digest conditions with a read count ranging between 10 and 40. The median read count value for these 100 peptides is calculated for each sample. The random peptide selection and median calculation is performed 20 times and the average of the 20 median values is calculated for each sample. Finally, the normalization factor is calculated by dividing the average median value for each sample by that for one of the mock digest conditions. Read counts are then converted to normalized read counts by dividing each sample's read count values by the normalization factor. Fold enrichments are calculated for each peptide by dividing their normalized read counts in the digest condition by the normalized read counts in the mock digest condition. The fold enrichments can be visualized in an MA plot by transforming the normalized read count data into a log ratio (M, on the y-axis) and a mean average (A, on the x-axis) between the digest and mock digest conditions.
The performance of the SEPARATE assay is expected to depend on protease-substrate requirements as well as biophysical features of the peptide library. The present inventors have verified by PCR and Sanger sequencing that 90% of the immobilized human library lacks in-frame mutations. […] To explore this further, a 56-amino acid mouse peptidome library (unpublished) was used in which both IL-1β and Gasdermin-D cleavage peptides are better represented. […] Mouse IL-1β and Gasdermin-D are highly similar to the human versions and can serve as substrates for human Caspase-1. […]

Another test deals with T2, Thrombin (Homo sapiens, UniProt P00734).
T2 construct: Thrombin (a serine protease); purchased SignalChem
In words: SEPARATE assay: human peptidome library digest with Thrombin. Type of test: biochemical. The settings on record: human library, Thrombin.

In test [2] the target is T1, Caspase-1. As to the kind of experiment: HUWE1 cleavage assay using recombinant Caspase-1 in THP-1 lysate (Western blot). Type of test: biochemical. The settings on record: recombinant Caspase-1 added to unstimulated THP-1 cell lysates; time-dependent. As for the experimental part:
Recombinant Caspase-1 (rCaspase-1) was diluted to 0.1 U/μl in 1× mammalian cell extraction buffer containing 2 μM Dithiothreitol (DTT). This buffer preserves enzymatic activity of proteases. Unstimulated, PMA differentiated THP-1 cells were also lysed in 1× mammalian cell extraction buffer with 200 μl of buffer to lyse one well of a 6-well plate (˜1×10^6 cells). Protease digests were set up with 50 μl of lysate (˜250,000 cells).
30 μl of protein lysates were mixed with 10 μl of 4× NuPage LDS sample loading buffer (Thermo Fisher, Cat. No. NP0007, final concentration to 1×). 4-12% NuPage Bis-Tris gels (Thermo Fisher, Cat. No. NP0321) were loaded with 35 μl of each sample along with high molecular weight standards (HiMark protein ladder, Thermo Fisher, Cat. No. LC5699) and resolved in 1× NuPAGE™ MES SDS Running Buffer (Thermo Fisher, Cat. No. NP0002) at 150V for 50-60 minutes. After suitable resolution of proteins, the gels were transferred to a PVDF membrane by the ‘wet transfer’ method using 1× NuPage transfer buffer (Thermo Fisher, Cat. No. NP00061) overnight at 4° C., 50 mA constant current. After transfer is complete, the membranes were washed in 1× tris buffered saline containing 0.01% Tween-20 (TBS-T), blocked for 30 minutes with 5% milk in TBS-T and probed with primary antibodies and HRP conjugated secondary antibodies with TBS-T washing in between. […]
(In western blotting, separated proteins are transferred to a membrane and probed.)

Test [3] deals with T1, Caspase-1. In words: SEPARATE assay: human peptidome library digest with Caspase-1. The settings on record: unstimulated THP-1 cell lysate supplemented with 0.1 units of recombinant Caspase-1. The test is classed as biochemical. As for the experimental part:
as §1
Digestion occurred overnight at room temperature with end-over-end rotation. […]
Library PCR preparation, high-throughput DNA sequencing, and peptide read count data generation was performed as described previously.^44 Briefly, library peptide inserts are amplified by resuspending 10 μl of FLAG-coated Protein G beads in PCR1 master mix containing the T7-Pep2_PCR1_F forward primer ([…]) (SEQ ID NO:3) and a T7-SEPARATE vector specific reverse primer ([…]) (SEQ ID NO:4), which includes an adapter sequence for sample-specific barcoding and Illumina P7 adapter incorporation during a subsequent PCR2 reaction. The PCR2 amplicons are pooled and sequenced using an Illumina NextSeq instrument in standard output mode to obtain single-end 50 nucleotide reads. Dual indexed sample demultiplexing and clonal read count determination were performed using exact sequence matching. […]

Another test deals with T3, endogenous Caspase-1 (Homo sapiens, UniProt P29466).
T3 construct: endogenous in cells; host or cells: PMA-differentiated THP-1 cells
T3 sequence (P29466 120-404): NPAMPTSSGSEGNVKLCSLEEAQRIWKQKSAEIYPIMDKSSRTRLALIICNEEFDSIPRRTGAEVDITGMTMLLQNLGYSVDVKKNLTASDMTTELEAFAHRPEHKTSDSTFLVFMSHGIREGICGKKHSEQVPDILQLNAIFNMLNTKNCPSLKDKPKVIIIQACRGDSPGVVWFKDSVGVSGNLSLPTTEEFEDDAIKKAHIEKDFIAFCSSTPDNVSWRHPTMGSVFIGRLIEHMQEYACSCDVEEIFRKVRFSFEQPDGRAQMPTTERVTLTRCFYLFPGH
In words: In vitro stimulation of the inflammasome in THP-1 cells (Western blot). The test is classed as cell-based. The note with it: PMA differentiated THP-1 cells, LPS and Nigericin. As for the experimental part:
THP-1 cells were cultured in RPMI-1640 media with Glutamax (Gibco, ThermoFisher, Cat #61870127), supplemented with 10% FBS (Hyclone SH30071, GE Life Sciences), and 1× Antibiotic-Antimycotic (Gibco, ThermoFisher, Cat #15240062), referred to as complete RPMI. To differentiate THP-1 cells into macrophages, 1×10^6 THP-1 cells were added per well of a 6-well plate in complete RPMI medium containing 50 ng/ml Phorbol 12-myristate 13-acetate (PMA, diluted in RPMI medium from a 1 mg/ml PMA stock in DMSO, Millipore Sigma, Cat. No. P1585). After 48 hours when the cells become adherent, the medium with PMA was removed, cells washed in 1×PBS once, and fresh complete RPMI was added. Cells were allowed to rest for an additional 24 hours before inflammasome activation with LPS and Nigericin.
A 6-well plate of PMA differentiated THP-1 cells were treated with 0, 1 or 0.1 μg/ml LPS (Millipore Sigma, Cat. No. LPS25) for 3.5 hours. After 3.5 hours, cells were treated with 2.5 μM Nigericin for an additional 30 minutes to activate the inflammasome. Cells were washed in 1×PBS and lysed in 1× mammalian cell extraction buffer (BioVision, Cat. No. K269) containing 2 μM Dithiothreitol (DTT). Nuclei were spun down by centrifugation (10,000 rpm, 5 minutes, 4° C.) and the cleared supernatant was used to perform Western blots. […]

Experimental findings from patent US12091776B2, “Protease activity profiling via programmable phage display of comprehensive proteome-scale peptide libraries” (THE JOHNS HOPKINS UNIVERSITY, priority 2019, dated 2024) are described below.

Description for Thrombin: The PCR2 amplicons are pooled and sequenced using an Illumina NextSeq instrument in standard output mode to obtain single-end 50 nucleotide reads. Dual indexed sample demultiplexing and clonal read count determination were performed using exact sequence matching. […] To calculate the normalization factor, 100 peptides were randomly selected from the mock digest conditions with a read count ranging between 10 and 40. The median read count value for these 100 peptides is calculated for each sample. The random peptide selection and median calculation is performed 20 times and the average of the 20 median values is calculated for each sample. Finally, the normalization factor is calculated by dividing the average median value for each sample by that for one of the mock digest conditions. […]

“HUWE1 2328-2384: 56-amino acid mouse peptidome library peptide of HUWE1 (VVIAGQPEVLSSQEMQVENELEDLIDELLERDGGSGNSTIIVSRSGEDESQEDVLMD; UniProt Q7TMY8 2328-2384, looked up, fragment)” showed a Caspase1 fold change in the test with Caspase-1 [1] of 23.12 fold.

Consider “IL1B 74-130: 56-amino acid mouse peptidome library peptide of IL-1β (WQLPVSFPWTFQDEDMSTFFSFIFEEEPILCDSWDDDDNLLVCDVPIRQLHYRLRDE; UniProt P10749 74-130, looked up, fragment)”, for which, in the test with Caspase-1 [1], the Caspase1 fold change was 13.23 fold.

With Fibrinogen, the “scoring in the SEPARATE assay” value at Thrombin is listed as “did not score”.

For “GSDMD 222-278: 56-amino acid mouse peptidome library peptide of Gasdermin-D (LLIGSKWDILLVSDEKQRTFEPSSGDRKAVGQRHHGLNVLAALCSIGKQLSLLSDGI; UniProt Q9D8T2 222-278, looked up, fragment)”, the Caspase1 fold change in the test with Caspase-1 [1] was 4.23 fold.

For “IL1B 0-56: 56-amino acid mouse peptidome library peptide of IL-1β (MATVPELNCEMPPFDSDENDLFFEVDGPQKMKGCFQTFDLGCPDESIQLQISQQHI; UniProt P10749 1-56, looked up, fragment)”, the Caspase1 fold change with Caspase-1 [1] is given as 8.10 fold.

As for “GSDMD 259-315: 56-amino acid mouse peptidome library peptide of Gasdermin-D (NVLAALCSIGKQLSLLSDGIDEEELIEAADFQGLYAEVKACSSELESLEMELRQQIL; UniProt Q9D8T2 259-315, looked up, fragment)”, the Caspase1 fold change with Caspase-1 [1] is 6.78 fold.

“HUWE1 2291-2347: 56-amino acid mouse peptidome library peptide of HUWE1 (QDPGEPGEAEVQEEDHDVTQTEVADGDIMDGEAETDSVVIAGQPEVLSSQEMQVENE; UniProt Q7TMY8 2291-2347, looked up, fragment)” came in with a Caspase1 fold change in the test with Caspase-1 [1] of 6.13 fold.

As to “IL1B 75-131: 56-amino acid mouse peptidome library peptide of IL-1β (QLPVSFPWTFQDEDMSTFFSFIFEEEPILCDSWDDDDNLLVCDVPIRQLHYRLRDEQ; UniProt P10749 75-131, looked up, fragment)”, in the test with Caspase-1 [1], the Caspase1 fold change was determined as 8.80 fold.

Turning to “HECT, UBA and WWE Domain Containing E3 Ubiquitin Protein Ligase 1 [HUWE1]”, the “cleavage of endogenous HUWE1 (Western blot)” value with Caspase-1 [2] was “robust cleavage”. In addition, the “enrichment in SEPARATE on a complex biological mixture” value with Caspase-1 [3] was “among the most significantly enriched targets”. In addition, the “cleavage by endogenous Caspase-1 upon inflammasome activation (Western blot)” value with endogenous Caspase-1 is given as “cleavage”.
